B1: OST577-IgG2M3 wild-type antibody (antibody)
chain 1: QVQLVESGGGVVQPGRSLRLSCAASGFTFSRYGMHWVRQAPGKGLEWVAVISYDGSNKWYADSVKGRFTISRDNSKNTLFLQMHSLRAADTGVYFCAKDQLYFGSQSPGHYWGQGTLVTVSSASTKGPSVFPLAPCSRSTSESTAALGCLVKDYFPEPVTVSWNSGALTSGVHTFPAVLQSSGLYSLSSVVTVPSSNFGTQTYTCNVDHKPSNTKVDKTVERKCCVECPPCPAPPAAAPSVFLFPPKPKDTLMISRTPEVTCVVVDVSHEDPEVQFNWYVDGVEVHNAKTKPREEQFNSTFRVVSVLTVVHQDWLNGKEYKCKVSNKGLPAPIEKTISKTKGQPREPQVYTLPPSREEMTKNQVSLTCLVKGFYPSDIAVEWESNGQPENNYKTTPPMLDSDGSFFLYSKLTVDKSRWQQGNVFSCSVMHEALHNHYTQKSLSLSPSK
chain 2: SYVLTQPPSVSVAPGQTARITCGGDNIGSKSVNWFQQKPGQAPVLVVYDDNERPSGISERFSGSNSGNTATLTISRVEAGDEADYYCQVWDSSSDHVVFGGGTKLTVLGQPKAAPSVTLFPPSSEELQANKATLVCLISDFYPGAVTVAWKADSSPVKAGVETTTPSKQSNNKYAASSYLSLTPEQWKSHRSYSCQVTHEGSTVEKTVAPTECS
B2: OST577-IgG1 wild-type antibody (antibody)
chain 1: not shown
chain 2: B1 chain 2

Tests used:
[1] = biological target: T1, human neonatal Fc receptor (FcRn), recombinant GPI-linked, on NS0 cells (human, UniProt P55899 24-297; P61769 21-119); experiment: competition flow cytometry, NS0 cells with human FcRn, vs biotinylated HuEP5C7-IgG2M3, FSB pH 6.0
T1 construct: Expressed from vector pDL208 on the surface of NS0 cells; also called human FcRn; HuFcRn; not shown: human c-myc decapeptide flanked by linker peptides, then GPI linkage signal of human decay accelerating factor (vector p)

[2] = biological target: T1, human neonatal Fc receptor (FcRn), …; experiment: competition flow cytometry, NS0 cells with human FcRn, vs biotinylated HuEP5C7-IgG2M3, FBB pH 6.0
[3] = biological target: T1, human neonatal Fc receptor (FcRn), …; experiment: competition flow cytometry, NS0 cells with human FcRn, vs biotinylated OST577-IgG2M3, FBB pH 6.0
[4] = biological target: T1, human neonatal Fc receptor (FcRn), …; experiment: competition flow cytometry, NS0 cells with human FcRn, vs biotinylated OST577-IgG1, FBB pH 6.0
[5] = biological target: T1, human neonatal Fc receptor (FcRn), …; experiment: as above; remark: listed apart in the source
[6] = biological target: T2, rhesus neonatal Fc receptor (FcRn), recombinant GPI-linked, on NS0 cells (rhesus, UniProt H9Z6D2 24-297; Q6V7J5 21-119, GPI-linked at the C-terminus); experiment: competition flow cytometry, NS0 cells with rhesus FcRn, vs biotinylated OST577-IgG1, FBB pH 6.0
T2 construct: Expressed from vector pDL410 on the surface of NS0 cells; also called rhesus FcRn; RhFcRn; not shown: human c-myc decapeptide flanked by linker peptides, then GPI linkage signal of human decay accelerating factor (vector p)

Binder	IC50 [1] [µg/mL]	Relative Binding [1]	IC50 [2] [µg/mL]	Relative Binding [2]	IC50 [3] [µg/mL]	Relative Binding [3]	IC50 [4] [µg/mL]	Relative Binding [4]	IC50 [5] [µg/mL]	Relative Binding [5]	IC50 [6] [µg/mL]	Relative Binding [6]
B1	10.7	1 ratio (IC50 wild-type / IC50 mutant)	9.4	1 ratio (IC50 wild-type / IC50 mutant)	11.9	1 ratio (IC50 wild-type / IC50 mutant)	–	–	–	–	–	–
B2	–	–	–	–	–	–	13.9	1 ratio (IC50 wild-type / IC50 mutant)	10.3	1 ratio (IC50 wild-type / IC50 mutant)	8.86	1 ratio (IC50 wild-type / IC50 mutant)
